Test results as given in article PMC8604678, “The MttB superfamily member MtyB from the human gut symbiont Eubacterium limosum is a cobalamin-dependent γ-butyrobetaine methyltransferase” (The Journal of Biological Chemistry, 2021).

Columns and labels:
[1] = substrate: C[N+](C)(C)CCCC(=O)[O-]; test: UV-visible spectrophotometric MtqC methylation assay; format: biochemical, Eubacterium limosum; details: ATP, Ti(III)citrate, pH 7.2, 37 °C, anoxic
[2] = substrate: C[N+](C)(C)C[C@H](O)CC(=O)O; test: as above; format: biochemical, Eubacterium limosum; details: methyl acceptor Co(I)-MtqC 15 μM, RamQ 5 μM, ATP, Ti(III)citrate, pH 7.2, 37 °C, anoxic
[3] = methyl acceptor Co(I)-MtqC 30 μM, RamQ 5 μM
[4] = methyl acceptor Co(I)-MtqC 56 μM, RamQ 4.5 μM

B1: MtyB (Eubacterium limosum) (protein)
chain: MLKGNLFTTFYSKDDIELIHESVLRVFNEVGVKFEYEEALELFKKHGARVEGDLVFIPEELLNKALSTIPESFEIVGPESKLEIGIGKGLVVAPTNGCPNLEDWDGNYRQTNADDLENFYKIINTSDVYGISSQVAADIPGFENCPTESALAQMAMMAKYSRKPMYNILGITPHNYKRGNAREGARECVQLIKKYMDNFDDYVCYSGMCVLPPLTVGTDALEHYFAFAEEKQPITITTCSMTNMTAPPSLMGSIVADFANMLAVAVMIQLIEPGLPVILSPFSSVSDMREVRLMTGAPEFLMIMSGHIAMGDFYRIPVRCSGALADGFTYDYQAGVESTLGALAVSLSNACILPHASGDLSNFNLLSFPKFMMDEEMLRYMKRLHDGVAISEKKANVELIKKVGPRGVYLKGRTPKDYREETYLTSPVFNRGTCNEEGRAATPPIQERAYKVYKERIESFELPDMTQAQKDLLNEHLPEKFKIK
notes: C-terminal hexahistidine tag, codon-optimized gene in pETDuet-1 co-expressed with mtqC in E. coli Tuner(DE3), separated from MtqC by anion exchange
In the case of B1, the Km [1, 3] is reported as 3.5 ± 0.7 mM, the kcat [1, 3] is reported as 3 ± 0.167 s⁻¹ and the Km [2] is reported as 4.0 ± 0.7 mM. For the same protein, the kcat [2] was 6.78 ± 0.442 s⁻¹.

B2: MtcB (Eubacterium limosum) (protein)
chain: MIRNSLTDVFFAKDDVENLHEGVLRVLSKVGVKIENDEALGIFEQHGARVENGTVYIGEVLLNKALQTVPANFELQGFDRTVQVGLDHDPVVIPTNGTPMVLNFDGSYSDTNTDDLVNFYKLIDTSDVMQVTSEIAVDVPGLDKTKDSLLAQTALLMKYSHKPIYNILGATIHNYKKGSVAQGVRENIQFAKKYYGYDDKYVIYSGTCVISPLGVGWEAMDHFMGFIKENQPISITACSMTNLTAPGSLYGSVVEDAAAILSIVVLSQLMNPGLPVLYTSLSSMSDMRYVQLCMGAPEFALITLGHIALANFYKIPVRVGGALGDAFKADYQAGVESFVGLMAPMLSQSAMIPHGCGTMGSFNLTSYEKFIMDEETIRYLMRLRRGFEVSDKRKEKALKDITKVGPRGNFLGGRTPKEYREDNYLASEVFNRKGCKENTREEQGDIRDRARKVYDARMEAYELPDTTLEQKKLLNTELPEQYKFDI
notes: expression plasmid of earlier work
B2 gave a Km [1, 4] of 15 ± 6 mM and a kcat [1, 4] of 0.138 ± 0.0183 s⁻¹.
